Results on two molecules are retold here after publication PMC10055104, “Organic Anion Transporting Polypeptide 3A1 (OATP3A1)-Gated Bio-Orthogonal Labeling of Intracellular Proteins” (Molecules, 2023).

Data set [1] deals with T1, OATP3A1 (Homo sapiens, UniProt Q9UIG8).
T1 construct: gene SLCO3A1; full-length transporter overexpressed in HEK-293 cells by recombinant lentivirus
T1 sequence (Q9UIG8 1-710): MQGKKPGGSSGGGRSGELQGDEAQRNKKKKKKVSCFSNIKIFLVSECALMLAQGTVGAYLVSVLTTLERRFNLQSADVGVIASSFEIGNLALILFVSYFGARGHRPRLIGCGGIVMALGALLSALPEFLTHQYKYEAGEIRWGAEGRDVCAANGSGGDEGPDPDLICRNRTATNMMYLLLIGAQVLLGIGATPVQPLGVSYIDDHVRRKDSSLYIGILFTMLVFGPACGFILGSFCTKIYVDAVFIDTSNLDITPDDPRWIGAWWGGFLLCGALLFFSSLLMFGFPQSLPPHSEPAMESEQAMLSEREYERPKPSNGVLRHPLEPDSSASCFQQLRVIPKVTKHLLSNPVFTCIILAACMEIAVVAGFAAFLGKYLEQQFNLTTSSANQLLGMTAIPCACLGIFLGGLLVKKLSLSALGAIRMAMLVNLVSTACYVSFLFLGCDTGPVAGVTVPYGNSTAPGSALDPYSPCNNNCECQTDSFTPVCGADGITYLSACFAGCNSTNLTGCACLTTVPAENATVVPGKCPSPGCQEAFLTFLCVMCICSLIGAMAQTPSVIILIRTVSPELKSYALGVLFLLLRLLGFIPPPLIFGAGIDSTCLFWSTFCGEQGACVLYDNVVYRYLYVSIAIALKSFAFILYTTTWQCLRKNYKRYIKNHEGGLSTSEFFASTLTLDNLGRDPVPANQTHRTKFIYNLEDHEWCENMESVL
Briefly: inhibition of CBRD2-BAT and CBRD4-BAT ([…]) uptake, flow cytometry. It counts as cell-based. The conditions noted are these: Uptake buffer pH 5.5, 37 °C, 15 min preincubation with inhibitor. Background: Flow cytometry measures light scatter and fluorescence of single cells or particles in a stream.

Substrate in data set [2]: CCN(CC)c1ccc2cc(/C=C/c3cc[n+](CCCCCC(=O)NCc4ccc(-c5nncnn5)cc4)cc3S(=O)(=O)[O-])c(=O)oc2c1
Nature of the data set: flow cytometry uptake into HEK-293-OATP3A1 cells, normalised to mock cells, Michaelis-Menten fit. In kind it is cell-based, Homo sapiens. The conditions noted are these: Uptake buffer pH 5.5, 37 °C, 15 min, transport.

Substrate in data set [3]: CN(C)c1ccc(/C=C/c2cc[n+](CCCCCC(=O)NCc3ccc(-c4nncnn4)cc3)cc2S(=O)(=O)[O-])cc1
The description is as above. In kind it is cell-based, Homo sapiens. The conditions noted are these: Uptake buffer pH 5.5, 37 °C, 15 min, transport.

On to `CCc1oc2ccccc2c1C(=O)c1cc(Br)c(O)c(Br)c1` [benzbromarone], for which, in data set [1], the “% decrease of transport at 20 μM” value is given as ~ 90%.

B1: OATP3A1 (Homo sapiens) (protein)
chain: T1 sequence (Q9UIG8 1-710)
notes: full-length transporter overexpressed in HEK-293 cells by recombinant lentivirus
Regarding B1, the Km in data set [2] was found to be 7.2 µM; in data set [3], 45 µM.

As usually defined, the Km is the concentration of substrate that gives half-maximal velocity.
